Measured values published in patent US20170067069A1 (SYNTHETIC GENOMICS, published 2017).

B1: SGT1 (suppressor of G2 allele of skp1), Nannochloropsis gaditana, genome locus Naga_100120 g12 (other)
chain: MEQAQLAFMDEDYATADELFSAYIATHPDDATALVSRAAVHLKLNQPSQALHDAEAAASLKSDFEVAWYRQGVAAFALEDFSRAKEAFMRGRALLGDRPEPQGRRYDVWLRKTTLELGEHDEQGMTVVAEGGRKELRQEEGAKGIEATVPRSQPSPTHPPSSAPAIPAGHVKFQFYQTTSYVTVTILYKGLREEDANVSVQPRHLKVSVGADGDVLFDRALFETVVPEESTSKIFATKIEVKLRKAMEGLTWPELCALSPGAAASVHTVSAPTPDSHATALPSLAQGPATAPSSKPLRPYASTKDWGAVEKEISKELESEKPEGDEALNTLFRDIYAKGSDETRRAMVKSFQTSGGTVLSTNWEEVGKKDYEKEEERKAPEGMEWRKWGV
notes: also called Nannochloropsis SGT1; gene 1852
B2: CRD1-117 (fragment of CHORD-3266 protein, amino acids 1-117) (other)
chain: MKLYVHYEEAGQDEKALTLKLTLPKSWAEQPLLQVLELFIESYNKKKTGLPPLDKDFVHMEKAGGVILPVGNIVSDMLSDRDDLYIRSGPGPARGKIAHLSSPPNAHASSESSTGLL
notes: Used as bait in the yeast two-hybrid screen, cloned into bait vector pGBKT7 (Clontech); also called CHORD domain fragment 1-117

Tests used:
[1] = target: T1, Skp1-7479 (Nannochloropsis Skp1 protein, genome locus Naga_100005 g56) (Nannochloropsis gaditana); assay: direct yeast two-hybrid assay
T1 construct: also called SKP-7479
T1 chain: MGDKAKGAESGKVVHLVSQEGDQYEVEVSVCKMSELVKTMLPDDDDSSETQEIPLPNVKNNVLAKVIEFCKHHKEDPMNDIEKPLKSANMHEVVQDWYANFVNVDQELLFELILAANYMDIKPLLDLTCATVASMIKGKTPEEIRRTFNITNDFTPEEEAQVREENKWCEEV
Text: (§1) In order to determine whether SGT1 (SEQ ID NO:27) and Skp1 were members of the same pathway, we tested whether Nannochloropsis SGT1 was capable of binding to Nannochloropsis Skp1 by Y2H. Two different Skp1 proteins were identified in Nannochloropsis, SKP1-8611 (polynucleotide SEQ ID NO:9 and polypeptide SEQ ID NO:28) and Skp1-7479 (SEQ ID NO:29 encoded at N. gaditana genome locus Naga_100005 g56, Genbank Accession AZIL01000936). Protein coding sequences were amplified using sequence specific primers for SGT1 (SEQ ID NO:30 and SEQ ID NO:31), SKP-8611 (SEQ ID NO:32 and SEQ ID NO:33), and SKP-7479 (SEQ ID NO:34 and SEQ ID NO:35) and cloned into the prey and bait vectors as described above.

[2] = target: T2, SKP1-8611 (Nannochloropsis Skp1 protein) (Nannochloropsis gaditana); assay: direct yeast two-hybrid assay
T2 construct: also called SKP-8611
T2 chain: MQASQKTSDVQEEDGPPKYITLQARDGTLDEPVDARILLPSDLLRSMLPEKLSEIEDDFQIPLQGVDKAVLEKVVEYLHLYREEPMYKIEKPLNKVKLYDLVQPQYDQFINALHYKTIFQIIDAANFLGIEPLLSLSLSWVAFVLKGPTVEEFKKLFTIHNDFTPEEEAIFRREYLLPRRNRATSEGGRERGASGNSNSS
Text: as §1

[3] = target: B1; assay: yeast two-hybrid screen, CRD1-117 bait against Nannochloropsis cDNA prey library; growth and blue color on selective media
Method: The prey library was screened for by mating of the library-containing (prey) strain with each individual bait strain (i.e., a strain expressing CRD1-117) according to the Matchmaker™ Gold Yeast Two-Hybrid System User Manual (Clontech). […] Based on these numbers, it is estimated that more than 10 million interactions were tested.
After subtraction of false positives from the other domain hits, one hit remained which was unique to this domain: the gene encoding SGT1 (SEQ ID NO:27) encoded at N. gaditana genome locus Naga_100120 g12; Genbank Accession AZIL01000354.1. This gene is commonly referred to as “suppressor of G2 allele of skp1” because it was discovered in a genetic suppressor screen aimed at suppressing skp1-4, a mutant with defects in yeast kinetochore function (Hieter et al. 1999 Nature 402:362-363). SGT1 is an essential component of the yeast kinetochore assembly pathway and has been associated to a number of different biological roles in different organisms. Furthermore, mammalian SGT1 is known to interact with an Hsp90 chaperone and melusin, the human homolog of CHORD-3266. Similarly, the Arabidopsis CHORD-3266 homolog, RAR1, is also known to bind Arabidopsis SGT1 (Takahashi et al. (2003) PNAS USA 100:11777-11782). […]

Row | Binder | binding result [1] | binding result [2] | binding result [3]
1 | B1 | binds | binds | –
2 | B2 | – | – | binds
